In US20090202574A1, “METHODS OF IMMUNE OR HAEMATOLOGICAL ENHANCEMENT, INHIBITING TUMOUR FORMATION OR GROWTH, AND TREATING OR PREVENTING CANCER” (priority 2004, published 2009):

What was measured:
[1] = tested on: B16 target cells; assay: Anti-tumour cytolytic activity of splenocytes against B16 target cells; format: in vivo, C57BL/6 mice; conditions: Example 18, FIG. 14D (fluorouracil experiment), vs controls
Description: (§1) Splenocytes were tested for their cytolytic activity against tumour target cells. […] Referring to FIGS. 14B, D, and F the percent cytotoxicity is plotted against various effector-to-target cell ratios (E:T ratios); each point represents the mean percent cytotoxicity obtained from 5 mice; and the bar represents 95% confidence intervals.

[2] = tested on: EL-4 target cells; assay: Anti-tumour CTL and/or NK cell cytolytic activity of splenocytes against EL-4 target cells; conditions: for increase in anti-tumour CTL and/or NK cell activity: Example 2, day 98; for increase in anti-tumour cytolytic activity: Example 18, EL-4, vs controls
Description: Splenocytes were harvested 28 days following tumour cell injection, as specified. They were incubated at 37° C. with EL-4 target cells in graded E:T ratios in 96-well round-bottom plates. After a 4-hour incubation, 50 μl of supernatant was collected, and lysis was measured using the Cyto Tox 96 Assay Kit (Promega, Madison, Wis., USA). Background controls for non-specific target and effector cell lysis were included. After background subtraction, percentage of cell lysis was calculated using the formula: 100× (experimental-spontaneous effector-spontaneous target/maximum target-spontaneous target).

[3] = tested on: EL-4 tumours; assay: Apoptotic index of tumour sections (TUNEL, annexin-V-fluos); format: in vivo, C57BL/6 mice; conditions: Example 7; vs mice fed control diet; P<0.001
Description: For in situ detection of apoptotic cells, tumors were excised and immediately frozen in dry ice, and stored at −70° C. Frozen serial sections of 6-μm thickness were fixed with paraformaldehyde solution (4% in PBS, pH 7.4), and permeabilized with a solution containing 0.1% Triton X-100 and 0.1% sodium citrate. They were incubated with 20 μl TUNEL reagent (In Situ apoptosis detection kit from Boehringer Mannheim, Germany) for 60 min at 37° C., and examined by fluorescence microscopy. Adjacent sections were counter-stained with haematoxylin to count the total number of cells, or the number of apoptotic cells in ten randomly selected fields (magnification of ×40). The apototic index (AI) was calculated as the number of apoptotic cells×100/total number of nucleated cells. For detection of apoptotic cells in vitro, the numbers of apoptotic and necrotic tumour cells were measured by staining with annexin-V-fluos, TUNEL, and trypan blue, as described previously (Kanwar, et al., 2001).
Sections were prepared from tumours of mice shown in FIGS. 4A and 4B at day 56 for the untreated control group fed the control diet, at day 70 for the groups fed either the control or iron-saturated bovine lactoferrin diet receiving paclitaxel and/or doxorubicin, and 7 days after treatment with drugs for mice fed the control diet. […]

[4] = tested on: Lewis lung carcinoma (LLC) tumours; assay: Lewis lung carcinoma tumour growth in mice; format: in vivo, C57BL/6 mice; conditions: Example 18; 28 g Fe-Lf per 2.4 Kg diet; epirubucin 15 mg/Kg i.p.
Description: (§2) Tumors were established by s.c. injection of 2×10^5 EL-4 cells into the left flank of mice, and growth determined by measuring two perpendicular diameters. Animals were euthanased when tumors reached more than 1.0 cm in diameter, in accord with Animal Ethics Approval (University of Auckland). All experiments included 5 mice per treatment group, unless otherwise indicated. Paclitaxel (30 mg dissolved in 5 ml of Cremophor® EL and dehydrated alcohol) was diluted in 0.9% NaCl and administered i.p. at 30 mg/Kg. Doxorubucin in water was injected i.p. at 15 mg/Kg. The drugs were injected in a volume of 0.01 to 0.02 ml/g body weight. The expression vector encoding mouse B7-1 was prepared by cesium chloride gradient centrifugation, and diluted to 5 μg/μl in a solution of 5% glucose in 0.01% Triton X-100. It was mixed in a ratio of 1:1 (wt:wt) with DOTAP cationic liposomes (Boehringer Mannheim, Germany). Tumors were injected with 180 μl of DNA (180 μg)/liposome complexes, as described previously (Kanwar, et al., 1999 and Kanwar, et al., 2000).
(§3) Mice were fed the control diet, and the same diet supplemented with 28 g of 100% Fe-saturated lactoferrin per 2.4 Kg of diet. EL-4 (2×10^5), Lewis lung carcinoma (LLC, 2×10^5), and B16 melanoma (2×10^5) tumour cells were injected into the left flanks of C57BL/6 mice following two weeks on the Lf diets, or control diet. […]

[5] = tested on: Nitrous oxide; assay: Nitrite (Griess reaction) at tumour site and in intestine; format: in vivo, mice; conditions: Example 14, P<0.001
Description: (§4) Cytokine levels in the supernatants of homogenates of the small intestine were determined using a “sandwich” ELISA kit (Endogen, Woburn, Mass.). They were detected within standard curve ranges of 15-375 pg/ml for IL-4, 0-2450 pg/ml for IL-5, 15-1000 pg/ml for TNF-α, 0-3000 pg/ml for IFN-γ, 37-3000 pg/ml for IL-10, 31.3-2000 pg/ml for IL-12, and 31.3-2000 pg/ml for IL-18, respectively. Quantification of nitrite, indicative of NO production, was carried out by the Griess reaction (Sigma, USA). The results are expressed as the mean nitrite concentration (μM)±SD.
(§5) The ability of oral iron-saturated lactoferrin to affect the expression of a panel of Th1 and Th2 cytokines was examined in non-tumour-bearing mice, and in tumour-bearing mice fed iron-saturated bovine lactoferrin or the control diet, and treated with either paclitaxel or doxorubicin or a combination of the two drugs.

[6] = tested on: B16 melanoma tumours; assay: B16 melanoma tumour growth in mice; format: in vivo, C57BL/6 mice; conditions: Example 18; 28 g Fe-Lf per 2.4 Kg diet; fluorouracil 150 mg/Kg i.p.
Description: as §2, §3

[7] = tested on: Th1 (IL-18, TNF-α, IFN-γ) and Th2 (IL-4, IL-5, IL-6, IL-10) cytokines; assay: ELISA of Th1 and Th2 cytokines in intestine and tumour; format: in vivo, mice; conditions: Example 14
Description: as §4, §5

[8] = tested on: EL-4 tumours; assay: EL-4 tumour growth in mice (s.c. flank tumour model); format: in vivo, C57BL/6 mice; conditions: for inhibition of tumour growth: Example 1, oral diet, day 42
[9] = tested on: LLC target cells; assay: Anti-tumour cytolytic activity of splenocytes against LLC target cells; format: in vivo, C57BL/6 mice; conditions: Example 18, FIG. 14B (epirubucin experiment), vs controls
Description: as §1

B1: iron-saturated bovine lactoferrin: Iron-saturated bovine lactoferrin extract (100% saturated) prepared from natural bLf (protein)
chain: APRKNVRWCTISQPEWFKCRRWQWRMKKLGAPSITCVRRAFALECIRAIAEKKADAVTLDGGMVFEAGRDPYKLRPVAAEIYGTKESPQTHYYAVAVVKKGSNFQLDQLQGRKSCHTGLGRSAGWIIPMGILRPYLSWTESLEPLQGAVAKFFSASCVPCIDRQAYPNLCQLCKGEGENQCACSSREPYFGYSGAFKCLQDGAGDVAFVKETTVFENLPEKADRDQYELLCLNNSRAPVDAFKECHLAQVPSHAVVARSVDGKEDLIWKLLSKAQEKFGKNKSRSFQLFGSPPGQRDLLFKDSALGFLRIPSKVDSALYLGSRYLTTLKNLRETAEEVKARYTRVVWCAVGPEEQKKCQQWSQQSGQNVTCATASTTDDCIVLVLKGEADALNLDGGYIYTAGKCGLVPVLAENRKSSKHSSLDCVLRPTEGYLAVAVVKKANEGLTWNSLKDKKSCHTAVDRTAGWNIPMGLIVNQTGSCAFDEFFSQSCAPGADPKSRLCALCAGDDQGLDKCVPNSKEKYYGYTGAFRCLAEDVGDVAFVKNDTVWENTNGESTADWAKNLNREDFRLLCLDGTRKPVTEAQSCHLAVAPNHAVVSRSDRAAHVKQVLLHQQALFGKNGKNCPDKFCLFKSETKNLLFNDNTECLAKLGGRPTYEEYLGTEYVTAIANLKKCSTSPLLEACAFLTR
modifications: iron-saturated; Bovine Lactoferrin
notes: Iron-saturated bovine lactoferrin extract (100% saturated) prepared from natural bLf
- increase in anti-tumour cytolytic activity [1]: 45%
- anti-tumour CTL and/or NK cell activity of splenocytes ([2]; Example 1, splenocytes at day 42, vs control diet): significantly (P<0.05) increased
- increase in anti-tumour CTL and/or NK cell activity ([2]; mice that remained tumour-free, vs control diet, P<0.001): 6 fold
- increase in anti-tumour CTL and/or NK cell activity ([2]; mice who developed tumours and were switched to control diet, vs control diet, P<0.001): 30 fold
- increase in anti-tumour cytolytic activity of splenocytes ([2]; Example 15, the one mouse that resisted the tumour challenge, vs control, P<0.001): 6 fold
- increase in anti-tumour cytolytic activities of splenocytes ([2]; Example 16, 6 of 30 mice that rejected the tumour on 1, 5 and 25 g diets, p<0.001): 3 to 4.6 fold
- increase in anti-tumour cytolytic activity ([2]; FIG. 14B (epirubucin experiment)): 130%
- increase in anti-tumour cytolytic activity ([2]; FIG. 14D (fluorouracil experiment)): 87%
- increase in anti-tumour cytolytic activity ([2]; FIG. 14F (cyclophosphamide/methotrexate experiment)): 100%
- increase in the apoptotic index of tumours [3]: 1.9 fold
- LLC tumour response [4]: slowed the growth of all three tumour types, but failed to eradicate the tumours altogether
- increase in nitrous oxide [5]: 3 to 4 fold
- B16 tumour response [6]: slowed the growth of all three tumour types, but failed to eradicate the tumours altogether
- cytokines within the tumor site [7]: increased the presence of all cytokines
- levels of IL-18 and IL-10 in tumour-bearing mice relative to non-tumour-bearing mice ([7]; oral feeding): less than half
- inhibition of tumour growth ([8]; 2 of 5 mice, vs control diet, P>0.05): 31%
- inhibition of tumour growth ([8]; the latter 3 mice (tumours first prevented for one week), P<0.05): 51%
- mice remaining completely tumour-free ([8]; Example 2, of 24 mice, monitored 11 weeks): Four
- mice that resisted the tumour challenge for 6 weeks ([8]; Example 2, of 24 mice, tumours then grew at reduced rate): Five
- time for tumours to reach 0.4 cm in diameter ([8]; Example 13, diet started at ~0.2 cm, control mice one week): two
- mice of ten that completely rejected the tumour challenge ([8]; Example 15, 20 g of Lf per 2.4 Kg diet): one
- mice of ten that completely rejected the tumour challenge ([8]; Example 16, 1 g Fe-Lf per 2.4 Kg diet): one
- tumour growth rate vs control diet ([8]; Example 16, 5 and 25 g per 2.4 Kg diet): grew significantly (p<0.05 at days 35-49) more slowly
- mice of ten that completely rejected the tumour challenge ([8]; Example 16, 5 g Fe-Lf per 2.4 Kg diet): two
- mice of ten that completely rejected the tumour challenge ([8]; Example 16, 25 g Fe-Lf per 2.4 Kg diet): three
- tumour growth rate vs control diet ([8]; Example 16, lowest and highest doses (1 and 100 g per 2.4 Kg diet)): did not differ greatly
- EL-4 tumour response ([8]; Example 18, 28 g Fe-Lf per 2.4 Kg diet, drugs i.p. at ~0.4 to 0.5 cm): slowed the growth of all three tumour types, but failed to eradicate the tumours altogether
- increase in anti-tumour cytolytic activity [9]: 150%
